Measurements from PMC11704248, “Alternative splicing in the DBD linker region of p63 modulates binding to DNA and iASPP in vitro” (Cell Death & Disease, 2025).
Several values for one entry are separate records, joined by “and”; a condition that tells them apart may be missing. Equal values may be shown once.

Assays:
[1] = target: iASPP SH3 (Homo sapiens) (UniProt Q8WUF5); conditions: cited from earlier work
[2] = target: iASPP C-terminal domain (CTD) (UniProt Q8WUF5); test: ITC; peptide titrated to the CTD or SH3 domain; VP-ITC; 25 mM HEPES pH 7.5, 150 mM NaCl, 500 µM TCEP; single-site binding model (AB hetero association)
[3] = target: iASPP CTD with N813 and Y814 mutated (UniProt Q8WUF5); test: not stated; affinities of peptides for iASPP CTD shown in Supplementary Fig. S5B, C, E; the text does not name the method
[4] = tested on: p63 DBD-TD WT; test: ELISA; conditions: ELISA: DPBS, 0.1% Tween-20, 10% Superblock, RT, 1 h; DNA pull-down: 50 mM Tris pH 8.0, 150 mM NaCl, 0.1% Tween-20, 4 C, 3 h
[5] = target: iASPP CTD (UniProt Q8WUF5); test: NMR titration; unlabelled p63 linker peptide (up to 500 µM) with 100 µM 15N-iASPP CTD; 288 K; 25 mM HEPES pH 7.0, 50 mM NaCl, 5 mM DTT; KD from CSPs of selected residues of the SH3 domain, one-site model
[6] = target: T1, ASPP2 CTD (UniProt Q13625 925-1128); test: ITC
T1 chain: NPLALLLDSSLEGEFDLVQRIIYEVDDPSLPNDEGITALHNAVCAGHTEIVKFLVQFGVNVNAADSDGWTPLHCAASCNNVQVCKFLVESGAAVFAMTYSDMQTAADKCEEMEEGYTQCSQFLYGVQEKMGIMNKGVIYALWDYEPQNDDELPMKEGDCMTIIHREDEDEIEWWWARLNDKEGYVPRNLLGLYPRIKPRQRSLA

[7] = target: iASPP CTD (UniProt Q8WUF5); test: ITC; peptide or DBD titrated to ASPP CTD; VP-ITC; 25 mM HEPES pH 7.5, 150 mM NaCl, 500 µM TCEP; AB hetero association (single-site) model
[8] = target: T2, iASPP CTD (UniProt Q8WUF5 625-828); test: ITC
T2 chain: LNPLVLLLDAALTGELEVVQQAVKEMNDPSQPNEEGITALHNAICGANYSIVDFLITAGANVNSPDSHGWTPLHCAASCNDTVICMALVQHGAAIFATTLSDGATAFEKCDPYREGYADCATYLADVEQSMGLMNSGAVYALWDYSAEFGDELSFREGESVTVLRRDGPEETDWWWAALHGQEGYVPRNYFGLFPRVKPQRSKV

[9] = target: T3, iASPP C-terminal domain (CTD) (UniProt Q8WUF5 625-828); test: ITC; peptide titrated to the CTD or SH3 domain; VP-ITC; 25 mM HEPES pH 7.5, 150 mM NaCl, 500 µM TCEP; single-site binding model (AB hetero association); conditions: both partners purified
T3 construct: iASPP C-terminal domain (four ankyrin repeats and SH3 domain); The limits 625-828 are printed for the CTD in the crystallisation fusion; no separate limits are printed for the CTD used in ITC and NMR; For NMR the same construct was 15N-labelled (M9 medium); also called iASPP CTD; source: E. coli BL21(DE3) Rosetta, purified (IMAC, TEV cleavage, reverse IMAC, ion exchange, SEC); not shown: His10, …
T3 sequence (looked up): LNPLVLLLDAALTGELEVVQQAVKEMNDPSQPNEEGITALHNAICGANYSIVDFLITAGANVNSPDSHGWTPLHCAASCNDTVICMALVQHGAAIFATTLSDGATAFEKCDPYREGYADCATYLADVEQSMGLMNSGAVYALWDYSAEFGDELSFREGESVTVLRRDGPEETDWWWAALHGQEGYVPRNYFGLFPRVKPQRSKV

[10] = target: T4, iASPP CTD N813A Y814A double mutant (UniProt Q8WUF5 625-828, N813A | Y814A); test: as above; conditions: both partners purified
T4 construct: iASPP C-terminal domain with N813A and Y814A; limits as for the iASPP CTD (amino acids 625-828, printed for the crystallised fusion); also called iASPP NY; N813A Y814A iASPP double mutant; source: E. coli BL21(DE3) Rosetta, purified (IMAC, TEV cleavage, reverse IMAC, ion exchange, SEC); not shown: His10, N-terminal, cleaved
T4 sequence (looked up): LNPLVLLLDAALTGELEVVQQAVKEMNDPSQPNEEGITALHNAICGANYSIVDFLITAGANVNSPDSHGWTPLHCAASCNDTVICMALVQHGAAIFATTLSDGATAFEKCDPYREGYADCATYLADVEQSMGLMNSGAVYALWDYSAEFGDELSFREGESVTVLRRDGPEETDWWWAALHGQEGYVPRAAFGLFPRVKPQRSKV

[11] = target: T3, iASPP C-terminal domain (CTD); test: as above; conditions: both partners purified; remark: listed apart in the source
[12] = target: T5, iASPP CTD (UniProt Q8WUF5 625-828); test: not stated; affinities of peptides for iASPP CTD shown in Supplementary Fig. S5B, C, E; the text does not name the method; conditions: both partners purified
T5 construct: iASPP, C-terminal domain (CTD: ankyrin repeats and SH3 domain), amino acids 625-828; In the crystal structure this stretch stood fused behind the p63 peptide; also called iASPP CTD (amino acids 625-828); 15N-labelled iASPP CTD; source: E. coli BL21(DE3) Rosetta, purified (IMAC, TEV cleavage, reverse IMAC, ion exchange, SEC); for NMR grown in M9 minimal medium (15N or 15N,13C labelled); not …
T5 sequence (looked up): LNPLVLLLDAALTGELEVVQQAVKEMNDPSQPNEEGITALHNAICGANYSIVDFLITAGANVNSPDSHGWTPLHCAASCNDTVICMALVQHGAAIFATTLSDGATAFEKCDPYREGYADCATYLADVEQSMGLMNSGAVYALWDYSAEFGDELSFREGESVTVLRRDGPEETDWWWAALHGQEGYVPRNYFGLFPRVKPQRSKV

**Q.** Which Kd [1] does the source give for iASPP here?
**A.** The Kd was 45 µM.

**Q.** With p63 linker acK336 peptide as the molecule, how does the Kd [2] read?
**A.** The Kd was 94.3 µM.

**Q.** With “optimized p63 linker peptide (p63opt, 331-344)” as the molecule, how does the Kd [2] read?
**A.** The Kd was 1.65 µM.

**Q.** For p63 linker peptide, which fold reduction of the affinity against wild-type iASPP CTD [3] is on record?
**A.** The fold reduction of the affinity against wild-type iASPP CTD was 2 fold.

**Q.** For p63 linker pT335 peptide, which Kd [2] is on record?
**A.** Its Kd is 132 µM.

**Q.** For p21 promoter RE 20 bp, which Kd [4] is on record?
**A.** Its Kd is 0.115 µM.

**Q.** With GDGTKRPFRQN [p63 linker peptide] as the molecule, how does the Kd [5] read?
**A.** The Kd was 64 to 105 µM.

**Q.** And the Kd [6]?
**A.** The Kd was 288 µM.

**Q.** What about the Kd [7] of the same molecule?
**A.** Its Kd is 90 µM.

B1: p73 linker peptide (peptide)
chain: NGAASKRAFKQSPP
modifications: limits not given; taken as the region aligned to p63 331-344 (p63 K336 = p73 K327)
**Q.** For B1, which Kd [6] is on record?
**A.** The Kd was 92.9 µM.

**Q.** What about the Kd [8] of the same molecule?
**A.** Its Kd is 33.8 µM.

B2: p63 DBD (domain or fragment)
chain: SPAIPSNTDYPGPHSFDVSFQQSSTAKSATWTYSTELKKLYCQIAKTCPIQIKVMTPPPQGAVIRAMPVYKKAEHVTEVVKRCPNHELSREFNEGQIAPPSHLIRVEGNSHAQYVEDPITGRQSVLVPYEPPQVGTEFTTVLYNFMCNSSCVGGMNRRPILIIVTLETRDGQVLGRRCFEARICACPGRDRKADEDSIRKQ
modifications: one Zn2+ bound; start from the paper's DBD constructs (123 + 39 = 162), end from the DNA_BIND feature (362 = paper 323)
**Q.** Which Kd [6] does the source give for B2 here?
**A.** Its Kd is 13.6 µM.

**Q.** With PPGSTKRALPNNTS (limits not given; taken as the region aligned to p63 331-344) as the molecule, how does the Kd [6] read?
**A.** Its Kd is 172 µM.

**Q.** What about the Kd [8] of the same molecule?
**A.** Its Kd is 135 µM.

B3: p63 linker peptide (331-344) (peptide)
peptide: NGDGTKRPFRQNTH
notes: p63 linker region between DBD and OD, residues 331-344; also called p63 peptide (331-344); p63 linker WT
**Q.** For B3, which Kd [9] is on record?
**A.** The Kd was 148 µM and 70.1 µM.

**Q.** And the Kd [10]?
**A.** Its Kd is 186 µM.

B4: p53 linker peptide (peptide)
chain: PPGSTKRALPNNTS
modifications: limits not given; taken as the region aligned to p63 linker peptide 331-344 (p53 R248 = p63 R279, K305 = K336)
**Q.** For B4, which Kd [9] is on record?
**A.** Its Kd is 55.2 µM.

**Q.** With NPGGRPITPPRNSA (peptide, UniProt P62136 313-326, looked up, also called PP1α (313-326)) [PP1α peptide (amino acids 313-326)] as the molecule, how does the Kd [11] read?
**A.** The Kd was 0.186 µM.

**Q.** With GDGPKRPFRQN as the molecule, how does the Kd [12] read?
**A.** Its Kd is 1.7 µM.
